Experimental data: patent US20140154255A1 (AbbVie / Abbott, published 2014)

B1: H97 A (SS DLL4-VEGF DVD-Ig) (bispecific antibody)
VH: EVQLVESGGGLVQPGGSLRLSCAASGFTFSNFPMAWVRQAPGKGLEWVATISSSDGTTYYRDSVKGRFTISRDNAKNSLYLQMNSLRAEDTAVYYCARGYYNSPFAYWGQGTLVTVSSASTKGPEVQLVESGGGLVQPGGSLRLSCAASGYTFTNYGMNWVRQAPGKGLEWVGWINTYTGEPTYAADFKRRFTFSLDTSKSTAYLQMNSLRAEDTAVYYCAKYPAYYGSSHWYFDVWGQGTLVTVSS
VL: DIQMTQSPSSLSASVGDRVTITCRASEDIYSNLAWYQQKPGKAPKLLIYDTNNLADGVPSRFSGSGSGTDFTLTISSLQPEDFATYYCQQYNNYPPTFGQGTKLEIKRTVAAPDIQMTQSPSSLSASVGDRVTITCSASQDISNYLNWYQQKPGKAPKVLIYFTSSLHSGVPSRFSGSGSGTDFTLTISSLQPEDFATYYCQQYSTVPWTFGQGTKVEIK
notes: also called SS DLL4-VEGF DVD-Ig variant H97A
B2: T 28 W (bispecific antibody)
VH: EVQLVESGGGLVQPGGSLRLSCAASGFTFSNFPMAWVRQAPGKGLEWVATISSSDGTTYYRDSVKGRFTISRDNAKNSLYLQMNSLRAEDTAVYYCARGYYNSPFAYWGQGTLVTVSSASTKGPEVQLVESGGGLVQPGGSLRLSCAASGYWFTNYGMNWVRQAPGKGLEWVGWINTYTGEPTYAADFKRRFTFSLDTSKSTAYLQMNSLRAEDTAVYYCAKYPHYYGSSHWYFDVWGQGTLVTVSS
VL: DIQMTQSPSSLSASVGDRVTITCRASEDIYSNLAWYQQKPGKAPKLLIYDTNNLADGVPSRFSGSGSGTDFTLTISSLQPEDFATYYCQQYNNYPPTFGQGTKLEIKRTVAAPDIQMTQSPSSLSASVGDRVTITCSASQDISNYLNWYQQKPGKAPKVLIYFTSSLHSGVPSRFSGSGSGTDFTLTISSLQPEDFATYYCQQYSTVPWTFGQGTKVEIK
notes: also called SS DLL4-VEGF DVD-Ig variant T28W
B3: T30 W (SS DLL4-VEGF DVD-Ig) (bispecific antibody)
VH: EVQLVESGGGLVQPGGSLRLSCAASGFTFSNFPMAWVRQAPGKGLEWVATISSSDGTTYYRDSVKGRFTISRDNAKNSLYLQMNSLRAEDTAVYYCARGYYNSPFAYWGQGTLVTVSSASTKGPEVQLVESGGGLVQPGGSLRLSCAASGYTFWNYGMNWVRQAPGKGLEWVGWINTYTGEPTYAADFKRRFTFSLDTSKSTAYLQMNSLRAEDTAVYYCAKYPHYYGSSHWYFDVWGQGTLVTVSS
VL: DIQMTQSPSSLSASVGDRVTITCRASEDIYSNLAWYQQKPGKAPKLLIYDTNNLADGVPSRFSGSGSGTDFTLTISSLQPEDFATYYCQQYNNYPPTFGQGTKLEIKRTVAAPDIQMTQSPSSLSASVGDRVTITCSASQDISNYLNWYQQKPGKAPKVLIYFTSSLHSGVPSRFSGSGSGTDFTLTISSLQPEDFATYYCQQYSTVPWTFGQGTKVEIK
notes: also called SS DLL4-VEGF DVD-Ig variant T30W
B4: S100a T (SS DLL4-VEGF DVD-Ig) (bispecific antibody)
VH: EVQLVESGGGLVQPGGSLRLSCAASGFTFSNFPMAWVRQAPGKGLEWVATISSSDGTTYYRDSVKGRFTISRDNAKNSLYLQMNSLRAEDTAVYYCARGYYNSPFAYWGQGTLVTVSSASTKGPEVQLVESGGGLVQPGGSLRLSCAASGYTFTNYGMNWVRQAPGKGLEWVGWINTYTGEPTYAADFKRRFTFSLDTSKSTAYLQMNSLRAEDTAVYYCAKYPHYYGTSHWYFDVWGQGTLVTVSS
VL: DIQMTQSPSSLSASVGDRVTITCRASEDIYSNLAWYQQKPGKAPKLLIYDTNNLADGVPSRFSGSGSGTDFTLTISSLQPEDFATYYCQQYNNYPPTFGQGTKLEIKRTVAAPDIQMTQSPSSLSASVGDRVTITCSASQDISNYLNWYQQKPGKAPKVLIYFTSSLHSGVPSRFSGSGSGTDFTLTISSLQPEDFATYYCQQYSTVPWTFGQGTKVEIK
notes: also called SS DLL4-VEGF DVD-Ig variant S100aT
B5: H97 F (SS DLL4-VEGF DVD-Ig) (bispecific antibody)
VH: EVQLVESGGGLVQPGGSLRLSCAASGFTFSNFPMAWVRQAPGKGLEWVATISSSDGTTYYRDSVKGRFTISRDNAKNSLYLQMNSLRAEDTAVYYCARGYYNSPFAYWGQGTLVTVSSASTKGPEVQLVESGGGLVQPGGSLRLSCAASGYTFTNYGMNWVRQAPGKGLEWVGWINTYTGEPTYAADFKRRFTFSLDTSKSTAYLQMNSLRAEDTAVYYCAKYPFYYGSSHWYFDVWGQGTLVTVSS
VL: DIQMTQSPSSLSASVGDRVTITCRASEDIYSNLAWYQQKPGKAPKLLIYDTNNLADGVPSRFSGSGSGTDFTLTISSLQPEDFATYYCQQYNNYPPTFGQGTKLEIKRTVAAPDIQMTQSPSSLSASVGDRVTITCSASQDISNYLNWYQQKPGKAPKVLIYFTSSLHSGVPSRFSGSGSGTDFTLTISSLQPEDFATYYCQQYSTVPWTFGQGTKVEIK
notes: also called SS DLL4-VEGF DVD-Ig variant H97F
B6: T 30 F (bispecific antibody)
VH: EVQLVESGGGLVQPGGSLRLSCAASGFTFSNFPMAWVRQAPGKGLEWVATISSSDGTTYYRDSVKGRFTISRDNAKNSLYLQMNSLRAEDTAVYYCARGYYNSPFAYWGQGTLVTVSSASTKGPEVQLVESGGGLVQPGGSLRLSCAASGYTFFNYGMNWVRQAPGKGLEWVGWINTYTGEPTYAADFKRRFTFSLDTSKSTAYLQMNSLRAEDTAVYYCAKYPHYYGSSHWYFDVWGQGTLVTVSS
VL: DIQMTQSPSSLSASVGDRVTITCRASEDIYSNLAWYQQKPGKAPKLLIYDTNNLADGVPSRFSGSGSGTDFTLTISSLQPEDFATYYCQQYNNYPPTFGQGTKLEIKRTVAAPDIQMTQSPSSLSASVGDRVTITCSASQDISNYLNWYQQKPGKAPKVLIYFTSSLHSGVPSRFSGSGSGTDFTLTISSLQPEDFATYYCQQYSTVPWTFGQGTKVEIK
notes: also called SS DLL4-VEGF DVD-Ig variant T30F
B7: N31 W (SS DLL4-VEGF DVD-Ig) (bispecific antibody)
VH: EVQLVESGGGLVQPGGSLRLSCAASGFTFSNFPMAWVRQAPGKGLEWVATISSSDGTTYYRDSVKGRFTISRDNAKNSLYLQMNSLRAEDTAVYYCARGYYNSPFAYWGQGTLVTVSSASTKGPEVQLVESGGGLVQPGGSLRLSCAASGYTFTWYGMNWVRQAPGKGLEWVGWINTYTGEPTYAADFKRRFTFSLDTSKSTAYLQMNSLRAEDTAVYYCAKYPHYYGSSHWYFDVWGQGTLVTVSS
VL: DIQMTQSPSSLSASVGDRVTITCRASEDIYSNLAWYQQKPGKAPKLLIYDTNNLADGVPSRFSGSGSGTDFTLTISSLQPEDFATYYCQQYNNYPPTFGQGTKLEIKRTVAAPDIQMTQSPSSLSASVGDRVTITCSASQDISNYLNWYQQKPGKAPKVLIYFTSSLHSGVPSRFSGSGSGTDFTLTISSLQPEDFATYYCQQYSTVPWTFGQGTKVEIK
notes: also called SS DLL4-VEGF DVD-Ig variant N31W
B8: S100a A (SS DLL4-VEGF DVD-Ig) (bispecific antibody)
VH: EVQLVESGGGLVQPGGSLRLSCAASGFTFSNFPMAWVRQAPGKGLEWVATISSSDGTTYYRDSVKGRFTISRDNAKNSLYLQMNSLRAEDTAVYYCARGYYNSPFAYWGQGTLVTVSSASTKGPEVQLVESGGGLVQPGGSLRLSCAASGYTFTNYGMNWVRQAPGKGLEWVGWINTYTGEPTYAADFKRRFTFSLDTSKSTAYLQMNSLRAEDTAVYYCAKYPHYYGASHWYFDVWGQGTLVTVSS
VL: DIQMTQSPSSLSASVGDRVTITCRASEDIYSNLAWYQQKPGKAPKLLIYDTNNLADGVPSRFSGSGSGTDFTLTISSLQPEDFATYYCQQYNNYPPTFGQGTKLEIKRTVAAPDIQMTQSPSSLSASVGDRVTITCSASQDISNYLNWYQQKPGKAPKVLIYFTSSLHSGVPSRFSGSGSGTDFTLTISSLQPEDFATYYCQQYSTVPWTFGQGTKVEIK
notes: also called SS DLL4-VEGF DVD-Ig variant S100aA
B9: T 28 D (bispecific antibody)
VH: EVQLVESGGGLVQPGGSLRLSCAASGFTFSNFPMAWVRQAPGKGLEWVATISSSDGTTYYRDSVKGRFTISRDNAKNSLYLQMNSLRAEDTAVYYCARGYYNSPFAYWGQGTLVTVSSASTKGPEVQLVESGGGLVQPGGSLRLSCAASGYDFTNYGMNWVRQAPGKGLEWVGWINTYTGEPTYAADFKRRFTFSLDTSKSTAYLQMNSLRAEDTAVYYCAKYPHYYGSSHWYFDVWGQGTLVTVSS
VL: DIQMTQSPSSLSASVGDRVTITCRASEDIYSNLAWYQQKPGKAPKLLIYDTNNLADGVPSRFSGSGSGTDFTLTISSLQPEDFATYYCQQYNNYPPTFGQGTKLEIKRTVAAPDIQMTQSPSSLSASVGDRVTITCSASQDISNYLNWYQQKPGKAPKVLIYFTSSLHSGVPSRFSGSGSGTDFTLTISSLQPEDFATYYCQQYSTVPWTFGQGTKVEIK
notes: also called SS DLL4-VEGF DVD-Ig variant T28D
B10: VL T51A (antibody, V domains shown)
VH: EVQLVESGGGLVQPGGSLRLSCAASGYTFTNYGMNWVRQAPGKGLEWVGWINTYTGEPTYAADFKRRFTFSLDTSKSTAYLQMNSLRAEDTAVYYCAKYPHYYGSSHWYFDVWGQGTLVTVSS
VL: DIQMTQSPSSLSASVGDRVTITCSASQDISNYLNWYQQKPGKAPKVLIYFASSLHSGVPSRFSGSGSGTDFTLTISSLQPEDFATYYCQQYSTVPWTFGQGTKVEIKR

Legend:
[1] = target: T1, human VEGF-A residues 27-191 of Accession #AAV38412 (human, UniProt P15692 27-191); assay: BIAcore SPR [continued]
T1 construct: range 27-191
T1 sequence (P15692 other isoform, or with tags, fused parts or gaps limits assumed): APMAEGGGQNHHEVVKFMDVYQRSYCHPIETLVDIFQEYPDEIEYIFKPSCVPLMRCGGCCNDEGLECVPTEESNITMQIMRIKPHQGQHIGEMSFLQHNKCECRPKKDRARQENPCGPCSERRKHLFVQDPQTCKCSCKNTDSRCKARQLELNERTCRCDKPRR
Description: (§1) The binding kinetics and affinity of the antibodies for VEGF (human VEGF-A residues 27-191 of Accession #AAV38412) was determined by using a BIAcore T200 surface plasmon resonance system (BIAcore, GE Healthcare, Piscataway, N.J.). Coupling running buffer was HBS-EP+ running buffer (10 mM HEPES, 150 mM sodium chloride, 3 mM EDTA 0.05% P-20, pH 7.4); assay running buffer was HBS-EP+ with 300 mM sodium chloride and 0.1 mg/mL BSA (Sigma A7906). Polyclonal goat anti-human Fc (Thermo Scientific prod#31125) was first immobilized to the biosensor surface in 10 mM sodium acetate, pH 4.5 using standard BIAcore amine coupling reagents (N-ethyl-N′-dimethylamino-propylcarbodiimide, EDC; N-hydroxysuccinimide, NHS; and ethanolamine HCl, pH 8.5). For binding kinetics assay a series of cycles were performed, each cycle consisted of 1) mAb capture, 2) Ag or buffer injection, 3) dissociation phase and 4) regeneration. Briefly, anti-VEGF antibodies were captured on parallel surfaces at a low flow rate of 10 μL/min. Capture levels were kept low to minimize avidity due to the dimeric nature of VEGF. No capture of the antibody was made on the reference surface to serve for primary referencing and as a negative control. Subsequently, VEGF or buffer only was injected to all flow cells at a flow rate of 80 μL/min for three minutes to monitor association followed by a 20-minute flow of assay rinning buffer at a flow rate of 80 μL/min to monitor dissociation. […] At the end of each cycle the surface was regenerated with 10 mM glycine, pH 1.5 at a flow rate of 60 μL/min in pulses of 60 and 10 sec. Binding data were fit to the 1:1 Langmuir model with mass transport term included using Biacore T200 Evaluation Software to determine the binding constants.

[2] = target: T1, human VEGF-A residues 27-191 of …; assay: BIAcore SPR, KD WT/KD mutant [continued]
Description: as §1

[3] = target: T1, human VEGF-A residues 27-191 of …; assay: SS DLL4-VEGF DVD-Ig format; BIAcore by paragraph 262
Description: as §1

[4] = target: Alexa647-conjugated rHuVEGF (Invitrogen Cat #PHG0143) (human, UniProt P15692-4 27-191, limits assumed, Alexa647-conjugated); assay: flow cytometry, surface-bound antibody on 293c18 cells, 3 nM Alexa647-rHuVEGF; design: reference not given here
Chain of Alexa647-conjugated rHuVEGF (Invitrogen Cat #PHG0143) (P15692 other isoform, or with tags, fused parts or gaps limits assumed): as above
Description: Data were gathered by way of flow cytometry using a DakoCytomation CyAn ADP flow cytometer and was analyzed using Treestar's FloJo analysis program.

Binder	Kd [1]	koff [1]	kon [1]	affinity improvement [2]	Affinity relative to WT [3]	MFI [4]
B1	5.03 nM	0.000269 s⁻¹	53600 M⁻¹ s⁻¹	1 fold		
B2					0.6 fold	
B3	16 nM	0.000143 s⁻¹	9120 M⁻¹ s⁻¹	0.8 fold		
B4	7.6 nM	7.33e-05 s⁻¹	9630 M⁻¹ s⁻¹	1.2 fold		
B5	11 nM	8.15e-05 s⁻¹	7210 M⁻¹ s⁻¹	0.8 fold		
B6					0.4 fold	
B7	13 nM	6.92e-05 s⁻¹	5500 M⁻¹ s⁻¹	0.9 fold		
B8	11 nM	0.000124 s⁻¹	11700 M⁻¹ s⁻¹	0.8 fold		
B9					0.8 fold	
B10						296
